B1: 17D7 (VHH)
VHH: EVQLVESGGGLVQPGGSLRLSCAASGFTLDYCAIGWFRQAPGKEREGVSCISSSDGSTYYADSVKGRFTISRDNAKNTVYLQMNSLKPEDTAVYYCATDRGSGTCYADFGSWGQGTQVTVSS
notes: C-term myc-His6 tag
B2: 47G11 (VHH)
VHH: EVQLVESGGGLVQPGGSLRLSCAASGRIFYPMGWFRQAPGKEREFVAAIGSGDIITYYADSVKGRFTISRDNAKNTVYLQMNSLKPEDTAVYYCASSRDYSRSRDPTSYDRWGQGTQVTVSS
notes: C-term myc-His6 tag
B3: 13G111/1-123 (VHH)
VHH: EVQLVESGGGLVQAGGSLRLSCAASGRTFSSYAMGWFRQAPGKERAFVAAIRWSGGNTYYADSVKGRFTISRDNAKNTVYLQMNSLKPEDTAVYYCAADTFTLSTLSHEYDYWGQGTQVTVSS
notes: C-term myc-His6 tag
B4: 46D4 (VHH)
VHH: EVQLVESGGGLVQPGGSLRLSCAASGFIFDDYAMSWVRQAPGKGLEWVSSINWSGTHTDYAEDMKGRFTISRDNAKKTLYLQMNSLQSEDTAVYYCAKGWGPAVTSIPVATLGTQVTVSS
notes: C-term myc-His6 tag
B5: 15D2 (VHH)
VHH: EVQLVESGGGLVQAGGSLRLSCVVSGVFGPIRAMAWYRQAPGKQRDWVATIGSSGHPVYTDSVKGRFTFSKDGAKNTVYLQMNSLKPEDTAVYYCRDINRDYWGQGTQVTVSS
notes: C-term myc-His6 tag
B6: 22B12/1-124 (VHH)
VHH: EVQLVESGGGLVQAGGSLRLSCAASGRTFSSYAMAWFRQAPGKEREFVAGINKSGGITHSADSVKGRFTISRDNAKNTVYLQMNSLKPEDTAVYYCAADAYTVIATLPHEYDYWGQGTQVTVSS
notes: C-term myc-His6 tag
B7: 13F71/1-123 (VHH)
VHH: EVQLVESGGGLVQAGGSLRLSCVASGRTFSNYALAWFRQAPGKEREFVAAINWRSGGSTYYADSVKGRFTISRDNAKNTVYLQMNSLKPEDTAVYYCAADLIVATLPGEYDYWGQGTQVTVSS
notes: C-term myc-His6 tag
B8: 11A22/1-122 (VHH)
VHH: EVQLVESGGGLVQAGGSLRLSCAASGRTFSSYAMAWFRQAPGTEREFIAGIRWSDGSTYYADSVKGRFTISRDNAKNTVYLQMNSLKPEDTAVYYCAADFYVSTLAHEYDYWGQGTQVTVSS
notes: C-term myc-His6 tag
B9: 12E11/1-122 (VHH)
VHH: B8 VHH with T43K, I48V, A49G, N77I
notes: C-term myc-His6 tag
B10: 12D44/1-122 (VHH)
VHH: B8 VHH with E1K, D73A, S85G
notes: C-term myc-His6 tag
B11: 14D4 (VHH)
VHH: EVQLVESGGGLVQAGDSLRLSCAASGRALDTYVMGWFRQAPGDGREFVAHIFRSGITSYASSVKGRFTISRDNAKNTVYLQMASLKPEDTAAYYCAARPSDTTWSESSASWGQGTQVTVSS
notes: C-term myc-His6 tag
B12: 15H4 (VHH)
VHH: EVQLVESGGGLVQAGGSLTLSCAPSESTVSFNTVAWYRQAPGEQREWVATISRQGMSTYPDSVKGRFTISRDNAKNTVYLQMNNLKPEDTAVYYCRDINHDIWGRGSQVTVSS
notes: C-term myc-His6 tag
B13: 14H61/1-122 (VHH)
VHH: EVQLVESGGGLVQAGGSLRLSCAASGRTFSRFAMGWFRQAPGKEREFVAAVRWSDDYTYYADSVKGRFTISRDNAKNTVYLQMNSLSPEDTAVYYCAADEILATLPHEYDYWGQGTQVTVSS
notes: C-term myc-His6 tag
B14: 17G11 (VHH)
VHH: EVQLVESGGGLVQAGGSLRLSCAASGSTFSINRWGWYRQAPGKQRELVAAIDDGGNTEYSDFVNGRFTISRDNPETAVHLQMNSLKLEDTAVYYCNAKQLPYLQNFWGQGTQVTVSS
notes: C-term myc-His6 tag
B15: 30D10 (VHH)
VHH: EVQLVESGGGLVQAGGSLTLSCTASETTVRIRTMAWYRQPPGNQREWVATIGSNGFATYPDSVKGRFTISRDNAKNTVYLQMNSLKPEDTAVYYCRDINRDIWGQGSQVTVSS
notes: C-term myc-His6 tag
B16: 27D6 (VHH)
VHH: B15 VHH
notes: C-term myc-His6 tag
B17: 27E5 (VHH)
VHH: B15 VHH
notes: C-term myc-His6 tag
B18: 27B3 (VHH)
VHH: B15 VHH
notes: C-term myc-His6 tag
B19: 30D10 (second entry, SEQ ID NO: 2204) (VHH)
VHH: B15 VHH
notes: C-term myc-His6 tag
B20: 27E7 (VHH)
VHH: EVQLVESGGGLVQAGGSLRLSCAASGITFRRYDMGWYRQFPGKERELVATILSEGDTNYVDPVKGRFTISRDNAKNTVYLQMNDLKPEDTAVYYCNGVWRAIGRTYWGQGTQVTVSS
notes: C-term myc-His6 tag
B21: 47E5 (VHH)
VHH: EVQLVESGGGLVQAGGSLRLSCAASASIFGFDSMGWYRQAPGNERILVAIISNGGTTSYRDSVKGRFTIARDNAKNTVSLQMNSLKPEDTAVYYCNLDRRSYNGRQYWGQGTQVTVSS
notes: C-term myc-His6 tag
B22: 17A8 (VHH)
VHH: EVQLVESGGGLVQAGGSLSLSCAASGRFFSTRVMAWYRQTPGKQREFVASMRGSGSTNYADSVRGRFAISRDNAKNMVYLQMNTLKPEDTAVYYCRDINEDQWGQGTQVTVSS
notes: C-term myc-His6 tag
B23: 17H10 (VHH)
VHH: EVQLVESGGGLVQAGGSLSLSCSASGRFFSTRVMAWYRQTPGNQREFVATIHSSGSTIYADSVRGRFAISRDNAKNTVYLQMRSLKPEDTAVYYCRDINADQWGQGTQVTVSS
notes: C-term myc-His6 tag
B24: 27A3 (VHH)
VHH: B22 VHH with A23V, M77T
notes: C-term myc-His6 tag
B25: 17B7 (VHH)
VHH: EVQLVESGGGLVQAGGSLRLSCAASGIISSFRTMAWYRQAPGKQRDWVATIGSDGLANYADSVKGRFTISRDNAKKTVYLQMNSLKPEDTAVYFCRDINRDYWGQGTQVTVSS
notes: C-term myc-His6 tag
B26: 15B6 (VHH)
VHH: B25 VHH with A14P, S29G, K43N, D54A, N58S, K64R, I69L, V92I, F94Y, R100G
notes: C-term myc-His6 tag
B27: 12D51/1-120 (VHH)
VHH: EVQLVESGGGLVQPGGSLRLSCAASGSAFSIKSMGWYRQAPGKQRELAAVIISSGTTTYADSVKGRFTISRDSAKNTVYLQMDSLKPEDTAVYVCNAVYVSTWGNGYDYWGQGTQVTVSS
notes: C-term myc-His6 tag
B28: 15E10 (VHH)
VHH: EVQLVESGGGLVQAGGSLKLSCVASGITFFRYTMGWYRQAPGKERELVAEISSADEPSFADAVKGRFTISRDNAKNTVVLQMNGLKPEDTAVYYCKGSWSYPGLTYWGKGTLVTVSS
notes: C-term myc-His6 tag
B29: 13C2 (VHH)
VHH: EVQLVESGGGLVQAGGSLRLSCAASGSTFSINRMAWYRQSPGKQRELVAAVDNDDNTEYSDSVAGRFTISRDNAKNAVHLQMNSLRLEDTAVYYCNAKQLPYLQNFWGQGTQVTVSS
notes: C-term myc-His6 tag
B30: 11A101/1-120 (VHH)
VHH: EVQLVESGGGLVQAGGSLRLSCAASGRTFNAMGWFRQAPGKEREFVAAISRSPGVTYYADSVKGRFTTSRDNAKNTVYLQMNDLKPEDTAVYYCAADFYLATLAHEYDYWGQGTQVTVSS
notes: C-term myc-His6 tag
B31: 17A3 (VHH)
VHH: EVQLVESGGGLVQAGGSLSLSCAASATLHRFDNNWYRQAPGKQRELVATIAHDGSTNYANSVKGRFTISRDNARDTLFLQMHALQPEDTAVYMCNLHRWGLNYWGQGTQVTVSS
notes: C-term myc-His6 tag
B32: 15D10 (VHH)
VHH: EVQLVESGGGLVQPGGSLKLSCAASGFTFSSYRMYWVRQAPGKGLEWVSAIKPDGSITYYADSVKGRFTISRDNAKNTVYLQMNSLKPEDTAVYYCATDCGVPGFGWTFSSWGQGTQVTVSS
notes: C-term myc-His6 tag
B33: 27F2 (VHH)
VHH: EVQLVESGGGLVQAGGSLRLSCAASGIISSFRTLAWYRQAPGKQRDWVATISSAGGTAYADAVKGRFTISISRDNVEYTVDLQMDSLKPEDTAVYYCRDINGDYWGQGTQVTVSS
notes: C-term myc-His6 tag
B34: 17A5 (VHH)
VHH: EVQLVESGGGLVQPGGSLRLSCAASGFTFDDYSMSWVRQATGKGLEWVSGISWNGGSTNYADSVKGRFTISRDNVKNTLYLQMNSLKSEDTAVYYCAKDLGNSGRGPYTNWGQGTQVTVSS
notes: C-term myc-His6 tag
B35: 17A6 (VHH)
VHH: EVQLVESGGGLVQPGGSLRLSCAASGFTFSSYAMSWVRQAPGKGLEWVSAISSGGGSITTYADSVKGRFTISTDNAKNTLYLQMSSLKPEDTALYYCAKARSSSSYYDFGSWGQGTQVTVSS
notes: C-term myc-His6 tag

Data on 35 molecules can be found in patent publication US20150232562A1 (Ablynx, published 2015).

Substitutions are numbered along the chain they refer to.

The test deals with T1, recombinant human ErbB2/Fc chimera (human, UniProt P04626 23-652).
T1 construct: bought from R&D Systems; also called rhErbB2-Fc; rhErb2-Fc; Fc part of the bought chimera not given; not described
The test can be described thus: ELISA, coated ErbB2/Fc.
Take B1: the binding result is reported as “binds”. Turning to B2, the binding result is listed as “binds”. With B3, the binding result is given as “binds”. Consider B4, for which the binding result was “binds”. As for B5, the binding result is “binds”.

Consider B6, for which the binding result is on record as “binds”. The same measure for B7: “binds”; for B8: “binds”; for B9: “binds”. B10: the binding result is recorded as “binds”. B11: the binding result is given as “binds”. Regarding B12, the binding result is recorded as “binds”.

Turning to B13, the binding result was “binds”. With B14, the binding result is reported as “binds”. Turning to B15, the binding result is reported as “binds”. As to B16, the binding result is reported as “binds”.

As for B17, the binding result is listed as “binds”. The same measure for B18: “binds”; for B19: “binds”. On to B20, for which the binding result is “binds”. The same measure for B21: “binds”; for B22: “binds”.

For the molecule B23, the binding result was “binds”. As to B24, the binding result is listed as “binds”. The same measure for B25: “binds”; for B26: “binds”; for B27: “binds”. With B28, the binding result is reported as “binds”. On to B29, for which the binding result was “binds”. As for B30, the binding result was “binds”.

For B31, the binding result is given as “binds”. Turning to B32, the binding result is listed as “binds”. The same measure for B33: “binds”; for B34: “binds”. Then B35, with “binds”.
